How the values were obtained:
[1] = LogP measurement of [205/206Bi]Bi-DOTAGA-cKNGRE (n-octanol/water); assay type: physicochemical; settings: shake-flask n-octanol/water, 205/206Bi as surrogates for 213Bi, 10 µL tracer in saline + 0.49 mL water + 0.5 mL n-octanol, shaken 5 min, centrifuged 6000 rpm 5 min, gamma counter
Experimental: For the determination of LogP value we used ^205/206Bi isotopes as surrogates which were produced by GE PETtrace cyclotron using the method described by Lagunas-Solar et al.. The radiolabelling of the precursor was carried out as follows: 50 µL of 3 M NH4OAc buffer (pH 4) and 15 µL of 6 mM DOTAGA-cKNGRE aqueous solution were added to 50 µL [^205/206Bi]BiCl3 in 0.1 M HCl. The labelled complex was purified as described above. Then 10 µL of the purified [^205/206Bi]Bi-DOTAGA-cKNGRE in physiological saline (Salsol, TEVA, Debrecen, Hungary) was diluted with 0.49 mL water. It was then mixed with 0.5 mL n-octanol in a vial and shaken for 5 min. After centrifugation (6000 rpm, 5 min) the radioactivity of the sample from both the aqueous and n-octanol phase was measured with a Perkin Elmer Packard Cobra gamma counter. The LogP value was −2.59.

[2] = Serum stability of [205/206Bi]Bi-DOTAGA-cKNGRE; assay type: in vitro ADME; settings: mouse plasma (heading says serum); 50 µL tracer in saline + 50 µL mouse plasma, 90 min, radio-iTLC; read-out: RCP after 90 min incubation in serum
Experimental: Fifty μL of [^205/206Bi]Bi-DOTAGA-Bn-cKNGRE in physiological saline (Salsol, TEVA, Debrecen, Hungary) was added to the solution of fifty μL of mouse plasma. The RCP of the samples was determined by radio-iTLC at 0, 30, 60 and 90 min time points using the same method as described above. After 90 min the [^205/206Bi]Bi-DOTAGA-Bn-cKNGRE remained intact as the RCP of the sample taken from the mixture was above 95%, which meets the requirements for ^213Bi-labelled radiopharmaceuticals.

[3] = system: HT1080 fibrosarcoma; assay: Cancer treatment study: tumour volume; assay type: in vivo, CB17 SCID mice; settings: approximately 5 MBq i.p. on days 7, 8, 10, 12, calliper, mean ± SD
Experimental: (§1) Experimental tumour induction was carried out under inhalation anaesthesia with a dedicated small animal anaesthesia device (Tec3 Isoflurane Vaporizer, Eickemeyer Veterinary Equipment, Luton, UK) applying 3% isoflurane (Forane, AbbVie, Chicago, IL, USA), 0.4 L/min O2 and 1.4 L/min N2O. This was followed by depilation and disinfection subcutaneous (s.c.) inoculation of 1.5 × 10^6 HT1080 (human fibrosarcoma) cells in 100 μL (1/3 part of Matrigel and 2/3 part of saline) into the left shoulder area of the CB17 SCID mice. For tumour verification the study mice underwent in vivo [^68Ga]Ga-DOTAGA-cKNGRE-based PET imaging 10 ± 1 days post tumour cell inoculation. To evaluate the organ distribution pattern of the ^213Bi-labelled therapeutic peptide compounds, ex vivo biodistribution studies were also executed 10 ± 1 days following the HT1080 cell transplantation at an average tumour volume of 155 ± 20 mm^3. Thereafter, tumour sizes based on the largest and the smallest tumour diameters were registered ((largest diameter × smallest diameter^2)/2). We used calliper measurements for tumour growth determination.
Seven days after HT1080 cell inoculation the tumour-bearing animals were randomly classified into two subgroups: treatment-naïve group (control, n = 8) and [^213Bi]Bi-DOTAGA-cKNGRE-treated group (treated, n = 8). Approximately 5 MBq [^213Bi]Bi-DOTAGA-cKNGRE was intraperitoneally (i.p.) administered to the experimental mice of the treated cohort on the 7th, 8th, 10th and 12th experimental days. The control mice were i.p. injected with 150 μL saline solution applying the same time regime.
On the 7th, 8th, 10th and 12th days of the investigation at an average tumour volume of 26.56 ± 2.39 mm^3 CB17 SCID mice bearing HT1080 fibrosarcoma in their left shoulder area were i.p. injected with approximately 5 MBq [^213Bi]Bi-DOTAGA- cKNGRE. The treatment-naïve study mice i.p. received 150 μL saline solution on the same experimental days. In a bid to assess the therapeutic efficacy of the investigated probe, body weights (BW, expressed in grams/g ± SD) and tumour volume (mm^3 ± SD) of the small animals were registered. Calliper measurements were applied to evaluate tumour development.

[4] = in vivo; set-up: species or system CB17 SCID mice; settings: CB17 SCID, mouse, 5 MBq, total radioactivity
Experimental: as §1
To assess the organ distribution of [^213Bi]Bi-DOTAGA-cKNGRE, ex vivo investigations were performed. The HT1080 fibrosarcoma-bearing experimental mice were anaesthetised with Forane (5%) and were sacrificed at 30 and 90 min post administration of the radiopharmaceutical. After autopsy, selected tissues, organs and the tumour itself were removed, weighed wet and their radioactivity was measured on a calibrated gamma counter (Perkin-Elmer Packard Cobra, Waltham, MA, USA). Then, the activity was decay corrected to the time of the injection. The percent of administered dose per gram of tissue (%ID/g) was determined for all samples from the counts per minute values (CPM). We presented the ex vivo data as mean %ID/g ± SD.

[5] = system: CD13pos. HT1080 fibrosarcoma; settings: mouse, in vivo; cited from earlier work
Experimental: The tumour-targeting potential of [^213Bi]Bi-DOTAGA-cKNGRE was also evaluated in HT1080 tumour-bearing CB17 mice. […] Although the tumourous tracer activity decreased from 30 to 90 min post-administration, relatively higher accumulation of the HT1080 neoplasms compared with the other organs at 90 min time point yields better tumour-to-background (T/M) ratios and image contrast. The tumour-to-organs ratio is ...

For `N=C(N)NCCC[C@@H]1NC(=O)CNC(=O)[C@H](CC(N)=O)NC(=O)[C@H](CCCCNC(=S)Nc2ccc(CNC(=O)CCC(C(=O)O)N3CCN(CC(=O)O)CCN(CC(=O)O)CCN(CC(=O)O)CC3)cc2)NC(=O)CC[C@@H](C(N)=O)NC1=O` (some centres unmarked) [[^205/206Bi]Bi-DOTAGA-cKNGRE], the LogP value [1] was −2.59 and the remaining at 1.5 h [2] was > 95%.
Work on `N=C(N)NCCC[C@@H]1NC(=O)CNC(=O)[C@H](CC(N)=O)NC(=O)[C@H](CCCCNC(=S)Nc2ccc(CNC(=O)CCC(C(=O)O)N3CCN(CC(=O)O)CCN(CC(=O)O)CCN(CC(=O)O)CC3)cc2)NC(=O)CC[C@@H](C(N)=O)NC1=O` (some centres unmarked) [[^213Bi]Bi-DOTAGA-cKNGRE, metal not drawn] yielded a tumour volume ([3]; day 7) of 28.25 ± 2.67 mm^3, a tumour volume ([3]; day 8) of 23.33 ± 6.87 mm^3 and a tumour volume ([3]; day 9, p ≤ 0.01 vs untreated) of 35.36 ± 7.57 mm^3. For the same compound, the tumour volume ([3]; day 10, p ≤ 0.01 vs untreated) was 58.33 ± 14.36 mm^3, the tumour volume ([3]; day 12, p ≤ 0.01 vs untreated) was 112.50 ± 18.42 mm^3 and the tissue uptake at 0.5 h ([4]; HT1080 tumor) was 1.48 ± 0.18 %ID/g. It also gave a tissue uptake at 1.5 h ([4]; HT1080 tumor) of 0.8 ± 0.16 %ID/g, a tissue uptake at 0.5 h ([4]; blood) of 2.72 ± 0.22 %ID/g and a tissue uptake at 0.5 h ([4]; bone (femur)) of 0.69 ± 0.38 %ID/g. For the same compound, the tissue uptake at 0.5 h ([4]; fat) was 0.72 ± 0.05 %ID/g, the tissue uptake at 0.5 h ([4]; kidney) was 11.4 ± 1.41 %ID/g and the tissue uptake at 1.5 h ([4]; kidney) was 4.51 ± 1.21 %ID/g. It also gave a tissue uptake at 0.5 h ([4]; lung) of 2.09 ± 0.74 %ID/g, a tissue uptake at 1.5 h ([4]; muscle) of 0.06 ± 0.02 %ID/g and a tissue uptake at 0.5 h ([4]; pancreas) of 0.57 ± 0.18 %ID/g. It also gave a tissue uptake at 1.5 h ([4]; pancreas) of 0.08 ± 0.03 %ID/g and a tissue uptake at 0.5 h ([4]; stomach) of 0.73 ± 0.04 %ID/g.
For “^68Ga-NOTA-Gly3-CNGRC [[^68Ga]Ga-NOTA-G3-NGR, ^68Ga-tagged CD13-affine peptide derivate, literature PET tracer]”, the tumour accumulation [5] is given as 4.96 ± 3.18 ID%/g.
